Square brackets hold non-standard residues; d marks the D form. Ends that are not written are not given here. hArg = N=C(N)NCCCC[C@H](N)C(=O)O; Nle = CCCC[C@H](N)C(=O)O; Aib = CC(C)(N)C(=O)O
T1: wild-type human PTH/PTHrP receptor (hP1R-WT) (human, UniProt Q03431 27-593)
T1 sequence (looked up): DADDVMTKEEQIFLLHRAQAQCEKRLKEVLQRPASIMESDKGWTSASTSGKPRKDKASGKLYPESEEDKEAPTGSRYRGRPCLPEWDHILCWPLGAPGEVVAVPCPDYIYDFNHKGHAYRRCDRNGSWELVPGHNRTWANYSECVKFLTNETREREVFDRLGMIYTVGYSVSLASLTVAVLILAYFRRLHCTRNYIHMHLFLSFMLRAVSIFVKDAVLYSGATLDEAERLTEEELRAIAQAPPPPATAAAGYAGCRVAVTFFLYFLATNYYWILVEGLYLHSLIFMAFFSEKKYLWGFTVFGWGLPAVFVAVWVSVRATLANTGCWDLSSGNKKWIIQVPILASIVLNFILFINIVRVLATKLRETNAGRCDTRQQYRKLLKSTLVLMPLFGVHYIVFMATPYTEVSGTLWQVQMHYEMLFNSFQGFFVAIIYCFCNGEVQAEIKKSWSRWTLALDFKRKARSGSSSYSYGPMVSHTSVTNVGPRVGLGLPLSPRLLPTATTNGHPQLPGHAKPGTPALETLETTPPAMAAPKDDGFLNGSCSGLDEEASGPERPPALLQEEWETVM

B1: [Aib^4,M]PTH(1-14) (peptide)
peptide: AVA[Aib]IQLMHQ[hArg]AKW-NH2
modifications: N-terminus assumed
SMILES: CC[C@H](C)[C@H](NC(=O)C(C)(C)NC(=O)[C@H](C)NC(=O)[C@@H](NC(=O)[C@H](C)N)C(C)C)C(=O)N[C@@H](CCC(N)=O)C(=O)N[C@@H](CC(C)C)C(=O)N[C@@H](CCSC)C(=O)N[C@@H](Cc1c[nH]cn1)C(=O)N[C@@H](CCC(N)=O)C(=O)N[C@@H](CCCCNC(=N)N)C(=O)N[C@@H](C)C(=O)N[C@@H](CCCCN)C(=O)N[C@@H](Cc1c[nH]c2ccccc12)C(N)=O
notes: Aib scan of [M]PTH(1-14); also called 625 Aib-4
B2: [Aib^1,3]PTH(1-9) (peptide)
peptide: [Aib]V[Aib]EIQLMH-NH2
modifications: N-terminus assumed
SMILES: CC[C@H](C)[C@H](NC(=O)[C@H](CCC(=O)O)NC(=O)C(C)(C)NC(=O)[C@@H](NC(=O)C(C)(C)N)C(C)C)C(=O)N[C@@H](CCC(N)=O)C(=O)N[C@@H](CC(C)C)C(=O)N[C@@H](CCSC)C(=O)N[C@@H](Cc1c[nH]cn1)C(N)=O
B3: [Aib^9,M]PTH(1-14) (peptide)
peptide: AVAEIQLM[Aib]Q[hArg]AKW-NH2
modifications: N-terminus assumed
SMILES: CC[C@H](C)[C@H](NC(=O)[C@H](CCC(=O)O)NC(=O)[C@H](C)NC(=O)[C@@H](NC(=O)[C@H](C)N)C(C)C)C(=O)N[C@@H](CCC(N)=O)C(=O)N[C@@H](CC(C)C)C(=O)N[C@@H](CCSC)C(=O)NC(C)(C)C(=O)N[C@@H](CCC(N)=O)C(=O)N[C@@H](CCCCNC(=N)N)C(=O)N[C@@H](C)C(=O)N[C@@H](CCCCN)C(=O)N[C@@H](Cc1c[nH]c2ccccc12)C(N)=O
notes: Aib scan of [M]PTH(1-14); also called 630 Aib-9
B4: [Aib^2,M]PTH(1-14) (peptide)
peptide: A[Aib]AEIQLMHQ[hArg]AKW-NH2
modifications: N-terminus assumed
SMILES: CC[C@H](C)[C@H](NC(=O)[C@H](CCC(=O)O)NC(=O)[C@H](C)NC(=O)C(C)(C)NC(=O)[C@H](C)N)C(=O)N[C@@H](CCC(N)=O)C(=O)N[C@@H](CC(C)C)C(=O)N[C@@H](CCSC)C(=O)N[C@@H](Cc1c[nH]cn1)C(=O)N[C@@H](CCC(N)=O)C(=O)N[C@@H](CCCCNC(=N)N)C(=O)N[C@@H](C)C(=O)N[C@@H](CCCCN)C(=O)N[C@@H](Cc1c[nH]c2ccccc12)C(N)=O
notes: Aib scan of [M]PTH(1-14); also called 623 Aib-2
B5: [Ala^3,12,Nle^8,Gln^10,Har^11,Trp^14,Arg^19,Tyr^21]PTH(1-21)amide (peptide)
peptide: AVAEIQL[Nle]HQ[hArg]AKWLASVRRY-NH2
modifications: N-terminus assumed
SMILES: CCCC[C@H](NC(=O)[C@H](CC(C)C)NC(=O)[C@H](CCC(N)=O)NC(=O)[C@@H](NC(=O)[C@H](CCC(=O)O)NC(=O)[C@H](C)NC(=O)[C@@H](NC(=O)[C@H](C)N)C(C)C)[C@@H](C)CC)C(=O)N[C@@H](Cc1c[nH]cn1)C(=O)N[C@@H](CCC(N)=O)C(=O)N[C@@H](CCCCNC(=N)N)C(=O)N[C@@H](C)C(=O)N[C@@H](CCCCN)C(=O)N[C@@H](Cc1c[nH]c2ccccc12)C(=O)N[C@@H](CC(C)C)C(=O)N[C@@H](C)C(=O)N[C@@H](CO)C(=O)N[C@H](C(=O)N[C@@H](CCCNC(=N)N)C(=O)N[C@@H](CCCNC(=N)N)C(=O)N[C@@H](Cc1ccc(O)cc1)C(N)=O)C(C)C
notes: unlabeled peptide; also called [M]PTH(1-21); 608 [M]PTH(1-21)
B6: [Aib^7,M]PTH(1-14) (peptide)
peptide: AVAEIQ[Aib]MHQ[hArg]AKW-NH2
modifications: N-terminus assumed
SMILES: CC[C@H](C)[C@H](NC(=O)[C@H](CCC(=O)O)NC(=O)[C@H](C)NC(=O)[C@@H](NC(=O)[C@H](C)N)C(C)C)C(=O)N[C@@H](CCC(N)=O)C(=O)NC(C)(C)C(=O)N[C@@H](CCSC)C(=O)N[C@@H](Cc1c[nH]cn1)C(=O)N[C@@H](CCC(N)=O)C(=O)N[C@@H](CCCCNC(=N)N)C(=O)N[C@@H](C)C(=O)N[C@@H](CCCCN)C(=O)N[C@@H](Cc1c[nH]c2ccccc12)C(N)=O
notes: Aib scan of [M]PTH(1-14); also called 628 Aib-7
B7: [Aib^8,M]PTH(1-14) (peptide)
peptide: AVAEIQL[Aib]HQ[hArg]AKW-NH2
modifications: N-terminus assumed
SMILES: CC[C@H](C)[C@H](NC(=O)[C@H](CCC(=O)O)NC(=O)[C@H](C)NC(=O)[C@@H](NC(=O)[C@H](C)N)C(C)C)C(=O)N[C@@H](CCC(N)=O)C(=O)N[C@@H](CC(C)C)C(=O)NC(C)(C)C(=O)N[C@@H](Cc1c[nH]cn1)C(=O)N[C@@H](CCC(N)=O)C(=O)N[C@@H](CCCCNC(=N)N)C(=O)N[C@@H](C)C(=O)N[C@@H](CCCCN)C(=O)N[C@@H](Cc1c[nH]c2ccccc12)C(N)=O
notes: Aib scan of [M]PTH(1-14); also called 629 Aib-8
B8: [Aib^10,M]PTH(1-14) (peptide)
peptide: AVAEIQLMH[Aib][hArg]AKW-NH2
modifications: N-terminus assumed
SMILES: CC[C@H](C)[C@H](NC(=O)[C@H](CCC(=O)O)NC(=O)[C@H](C)NC(=O)[C@@H](NC(=O)[C@H](C)N)C(C)C)C(=O)N[C@@H](CCC(N)=O)C(=O)N[C@@H](CC(C)C)C(=O)N[C@@H](CCSC)C(=O)N[C@@H](Cc1c[nH]cn1)C(=O)NC(C)(C)C(=O)N[C@@H](CCCCNC(=N)N)C(=O)N[C@@H](C)C(=O)N[C@@H](CCCCN)C(=O)N[C@@H](Cc1c[nH]c2ccccc12)C(N)=O
notes: Aib scan of [M]PTH(1-14); Aib replaces the Gln^10 of [M]; also called 631 Aib-10
B9: [Aib^6,M]PTH(1-14) (peptide)
peptide: AVAEI[Aib]LMHQ[hArg]AKW-NH2
modifications: N-terminus assumed
SMILES: CC[C@H](C)[C@H](NC(=O)[C@H](CCC(=O)O)NC(=O)[C@H](C)NC(=O)[C@@H](NC(=O)[C@H](C)N)C(C)C)C(=O)NC(C)(C)C(=O)N[C@@H](CC(C)C)C(=O)N[C@@H](CCSC)C(=O)N[C@@H](Cc1c[nH]cn1)C(=O)N[C@@H](CCC(N)=O)C(=O)N[C@@H](CCCCNC(=N)N)C(=O)N[C@@H](C)C(=O)N[C@@H](CCCCN)C(=O)N[C@@H](Cc1c[nH]c2ccccc12)C(N)=O
notes: Aib scan of [M]PTH(1-14); also called 627 Aib-6

Tests used:
[1] = target: T1, wild-type human PTH/PTHrP receptor …; assay: cell-based or functional assay
[2] = target: T1, wild-type human PTH/PTHrP receptor …; assay: competition binding, 125I-[M]PTH(1-21) tracer, HKRK-B28 cells
Experimental: (§1) Cells were then placed on ice, the binding medium was removed, and the monolayer was rinsed three times with 0.5 mL of cold binding buffer. The cells were subsequently lysed with 0.5 mL […] NaOH and counted for radioactivity. For each tracer and in each experiment, the non-specific binding was determined as the radioactivity that bound in the presence of the same unlabeled peptide at a concentration of 1 μM, and was ˜1% of total radioactivity added for each tracer. The maximum specific binding (B₀) was the total radioactivity bound in the absence of competing ligand, corrected for nonspecific binding, and for each tracer, ranged from 8% to 20% of the total radioactivity added. Nonlinear regression was used to calculate binding IC₅₀ values (see below). Scatchard transformations of homologous competition binding data derived from studies with 26 fmol of ¹²⁵I-[Aib^{1,3},M]PTH(1-21) were employed for estimations of apparent equilibrium dissociation constant (kDapps) and total number of ligand binding sites (Bₘₐₓ), assuming a single class of binding sites and equal affinities of the iodinated and non iodinated ligand.
Relative to the apparent binding affinity of [M]PTH(1-14), most of the Aib substitutions reduced affinity, in accordance with the corresponding effects on cAMP-signaling potency (Table 1).

[3] = target: T1, wild-type human PTH/PTHrP receptor …; assay: competition binding, 125I-[M]PTH(1-21) tracer, HKRK-B28 cells, 4 h at 4 C
Experimental: as §1, with “Competition Binding. Binding reactions were performed with HKRK-B28 cells or in COS-7 cells in 24-well plates. The cells were rinsed with 0.5 mL of binding buffer, and then treated successively with 100 μL binding buffer, 100 μL of binding buffer containing various amounts of unlabeled competitor ligand, and 100 μL of binding buffer containing ca. 100,000 cpm of ¹²⁵I-[M]PTH(1-21) or ¹²⁵I-[Aib^{1,3},M]PTH(1-21)} (ca. 26 fmol; final volume=300 μL). Incubations were 4 to 6 h at 4° C., at which time near equilibrium conditions were attained. Cells” for “Cells”
Peptides PTH(1-34) ([Nle^{8,21}, Tyr³⁴]PTH(1-34)amide), [M]PTH(1-14) (M = Ala^{3,12}, Gln¹⁰, Har¹¹, Trp¹⁴), and [M]PTH(1-14 analogs, or C-terminally truncated derivatives thereof, containing α-aminoisobutyric acid (Aib) substitutions at the indicated positions were functionally evaluated in HKRK-B28 cells. “M” in [Aib^{1,3}, M]PTH(1-21) = Nle⁸, Gln¹⁰, Har¹¹, Ala¹², Trp¹⁴, Arg¹⁹ and Tyr²¹. The basal cAMP values (not subtracted) were 4.0 ± 0.1 pmole/well (n = 10). Peptides were based on the rat PTH sequence and were carboxy-amidated. Competition binding analyses were performed with ¹²⁵I-[M]PTH(1-21 )amide (Ala^{1,3}) as tracer for 4 h at 4° C. Data are means (±S.E.M.) Of the number of experiments indiated (n).

Row | Binder | cAMP EC50 [1] [µM] | cAMP EMax(obs.) [1] [pmole/well] | fold reduction in affinity relative to [M]PTH(1-14) [2] [fold] | IC50 [3] [µM] | fold improvement in affinity relative to [M]PTH(1-14) [2] [fold]
1 | B1 | 17 | 221 | > 10 | 148 | –
2 | B2 | > 10 | 10 | – | – | –
3 | B3 | 710 | 51 | > 10 | – | –
4 | B4 | 47 | 168 | – | 50 | –
5 | B5 | – | – | – | 0.053 | –
6 | B6 | 2.6 | 275 | > 10 | 490 | –
7 | B7 | 1500 | 34 | > 10 | – | –
8 | B8 | 3 | 214 | – | 9.1 | 1.4
9 | B9 | 230 | 116 | ~3 | 31 | –

— patent US20050026839A1 (GENERAL HOSPITAL, published 2005)
